T1: GRIP1_1, Q9Y3R0
T1 sequence (Q9Y3R0 48-146, limits assumed, looked up): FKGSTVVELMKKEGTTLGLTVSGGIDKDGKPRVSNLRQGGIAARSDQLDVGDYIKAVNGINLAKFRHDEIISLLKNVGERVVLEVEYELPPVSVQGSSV

T2: LNX2_4, Q8N448
T2 sequence (Q8N448 595-690, limits assumed, looked up): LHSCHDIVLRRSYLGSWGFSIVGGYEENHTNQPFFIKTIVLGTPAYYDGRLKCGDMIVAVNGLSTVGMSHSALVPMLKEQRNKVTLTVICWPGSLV

T3: PDZD8, Q8NEN9
T3 sequence (Q8NEN9 361-459, limits assumed, looked up): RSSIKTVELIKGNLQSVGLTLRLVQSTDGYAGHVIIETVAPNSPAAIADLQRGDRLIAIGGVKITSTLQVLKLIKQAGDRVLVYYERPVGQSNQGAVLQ

T4: PARD6B, Q9BYG5
T4 sequence (Q9BYG5 152-260, limits assumed, looked up): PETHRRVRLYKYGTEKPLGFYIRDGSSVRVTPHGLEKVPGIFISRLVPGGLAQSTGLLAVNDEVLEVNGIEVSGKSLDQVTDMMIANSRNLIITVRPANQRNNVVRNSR

T5: PTPN4, P29074
T5 sequence (P29074 512-599, limits assumed, looked up): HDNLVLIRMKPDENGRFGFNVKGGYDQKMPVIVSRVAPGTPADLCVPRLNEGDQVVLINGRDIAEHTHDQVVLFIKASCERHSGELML

T6: MPDZ_6, O75970
T6 sequence (O75970 1003-1099, limits assumed, looked up): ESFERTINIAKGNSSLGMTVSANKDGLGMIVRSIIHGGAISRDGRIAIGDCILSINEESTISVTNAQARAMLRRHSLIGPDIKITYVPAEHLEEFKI

T7: PDZD2_4, O15018
T7 sequence (O15018 723-823, limits assumed, looked up): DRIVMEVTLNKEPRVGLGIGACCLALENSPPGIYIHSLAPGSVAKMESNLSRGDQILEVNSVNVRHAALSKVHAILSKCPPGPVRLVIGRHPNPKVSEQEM

T8: NHERF1_1, O14745
T8 sequence (O14745 9-104, limits assumed, looked up): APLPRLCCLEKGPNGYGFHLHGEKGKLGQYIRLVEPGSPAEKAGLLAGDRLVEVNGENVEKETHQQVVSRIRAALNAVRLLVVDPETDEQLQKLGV

T9: SHANK3, Q9BYB0
T9 sequence (Q9BYB0 641-750, limits assumed, looked up): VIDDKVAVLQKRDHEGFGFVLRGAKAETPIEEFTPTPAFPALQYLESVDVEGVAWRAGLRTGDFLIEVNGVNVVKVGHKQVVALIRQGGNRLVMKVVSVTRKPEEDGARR

T10: MLLT4, P55196
T10 sequence (P55196 1002-1103, limits assumed, looked up): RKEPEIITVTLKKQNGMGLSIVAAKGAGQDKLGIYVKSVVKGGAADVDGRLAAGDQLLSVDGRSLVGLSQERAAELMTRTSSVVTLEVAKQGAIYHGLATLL

T11: PDZD4, Q76G19
T11 sequence (Q76G19 125-224, limits assumed, looked up): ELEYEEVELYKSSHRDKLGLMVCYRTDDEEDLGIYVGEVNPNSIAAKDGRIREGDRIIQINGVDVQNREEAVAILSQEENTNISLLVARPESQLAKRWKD

T12: DVL1, O14640
T12 sequence (O14640 246-333, limits assumed, looked up): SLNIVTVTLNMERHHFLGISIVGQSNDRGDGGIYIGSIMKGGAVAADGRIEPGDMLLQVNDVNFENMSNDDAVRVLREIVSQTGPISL

T13: MPP1, Q00013
T13 sequence (Q00013 66-162, limits assumed, looked up): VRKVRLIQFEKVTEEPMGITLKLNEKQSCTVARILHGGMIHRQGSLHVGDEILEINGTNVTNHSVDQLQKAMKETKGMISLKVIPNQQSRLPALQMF

T14: PREX2_2, Q70Z35
T14 sequence (Q70Z35 672-764, limits assumed, looked up): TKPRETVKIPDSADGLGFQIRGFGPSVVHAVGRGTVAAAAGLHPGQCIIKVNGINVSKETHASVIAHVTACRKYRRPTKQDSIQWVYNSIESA

T15: SHANK2, Q9UPX8
T15 sequence (Q9UPX8 621-730, limits assumed, looked up): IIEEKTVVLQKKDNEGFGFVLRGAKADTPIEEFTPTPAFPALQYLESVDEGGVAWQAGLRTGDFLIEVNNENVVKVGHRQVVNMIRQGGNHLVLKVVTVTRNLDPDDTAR


Tests used:
Test in all cases: holdup assay
Parameters in all cases: key: below the threshold = too weak to quantify, mostly under pKd 3.1 to 4
Settings in all cases: plain residues with an end cap or a label only (N-terminal biotin on a linker: ttds)
[1] = molecular target: IL16_2, Q14005
IL16_2, Q14005, sequence (Q14005 350-450): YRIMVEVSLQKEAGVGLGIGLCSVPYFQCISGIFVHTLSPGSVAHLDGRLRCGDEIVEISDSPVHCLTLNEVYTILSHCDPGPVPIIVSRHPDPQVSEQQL

[2] = molecular target: T1, GRIP1_1, Q9Y3R0
[3] = molecular target: T2, LNX2_4, Q8N448
[4] = molecular target: PDZD9, Q8IXQ8
PDZD9, Q8IXQ8, sequence (Q8IXQ8 23-120): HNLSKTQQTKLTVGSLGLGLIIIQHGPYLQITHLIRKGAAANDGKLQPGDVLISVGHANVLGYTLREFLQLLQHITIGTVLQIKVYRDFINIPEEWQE

[5] = molecular target: T3, PDZD8, Q8NEN9
[6] = molecular target: T4, PARD6B, Q9BYG5
[7] = molecular target: SCRIB_4, Q14160
SCRIB_4, Q14160, sequence (Q14160 1095-1204): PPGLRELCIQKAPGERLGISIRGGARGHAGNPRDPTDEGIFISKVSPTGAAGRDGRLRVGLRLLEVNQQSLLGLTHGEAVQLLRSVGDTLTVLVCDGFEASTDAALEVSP

[8] = molecular target: T5, PTPN4, P29074
[9] = molecular target: T6, MPDZ_6, O75970
[10] = molecular target: T7, PDZD2_4, O15018
[11] = molecular target: MAGI1_4, Q96QZ7
MAGI1_4, Q96QZ7, sequence (Q96QZ7 other isoform, or with tags, fused parts or gaps): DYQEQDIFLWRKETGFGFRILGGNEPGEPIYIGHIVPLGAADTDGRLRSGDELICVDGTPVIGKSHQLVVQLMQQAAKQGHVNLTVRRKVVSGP

[12] = molecular target: T8, NHERF1_1, O14745
[13] = molecular target: TJP1_1, Q07157
TJP1_1, Q07157, sequence (Q07157 18-120): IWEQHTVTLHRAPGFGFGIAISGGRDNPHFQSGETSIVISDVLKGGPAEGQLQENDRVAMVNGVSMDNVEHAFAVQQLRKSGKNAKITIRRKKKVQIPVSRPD

[14] = molecular target: T9, SHANK3, Q9BYB0
[15] = molecular target: RIMS1, Q86UR5
RIMS1, Q86UR5, sequence (Q86UR5 584-692): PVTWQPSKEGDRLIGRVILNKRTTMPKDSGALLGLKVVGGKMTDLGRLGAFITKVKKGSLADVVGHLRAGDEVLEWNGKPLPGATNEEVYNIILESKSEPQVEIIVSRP

[16] = molecular target: T10, MLLT4, P55196
[17] = molecular target: T11, PDZD4, Q76G19
[18] = molecular target: T12, DVL1, O14640
[19] = molecular target: T13, MPP1, Q00013
[20] = molecular target: PREX1_1, Q8TCU6
PREX1_1, Q8TCU6, sequence (Q8TCU6 608-718): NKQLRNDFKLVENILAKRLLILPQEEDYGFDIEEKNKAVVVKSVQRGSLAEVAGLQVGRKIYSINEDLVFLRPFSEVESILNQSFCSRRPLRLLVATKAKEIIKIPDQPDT

[21] = molecular target: T14, PREX2_2, Q70Z35
[22] = molecular target: T15, SHANK2, Q9UPX8

Binder | pKd [1] | pKd [2] | pKd [3] | pKd [4] | pKd [5] | pKd [6] | pKd [7] | pKd [8] | pKd [9] | pKd [10] | pKd [12] | pKd [13] | pKd [14] | pKd [16] | pKd [17] | pKd [18] | pKd [19] | pKd [20] | pKd [21] | pKd [22] | also measured
RRVRKLPSTTL [RPS6KA1, Q15418] | below the threshold | below the threshold | below the threshold | below the threshold | below the threshold | below the threshold | below the threshold | below the threshold | below the threshold | below the threshold | below the threshold | below the threshold | 4.14 | below the threshold | below the threshold | below the threshold | below the threshold |  |  |  | pKd [11]: below the threshold; pKd [15]: below the threshold
CLDTSRETDL [KCNA5, P22460] | below the threshold | below the threshold | below the threshold | below the threshold | below the threshold | below the threshold | below the threshold | 4.07 | below the threshold | below the threshold | below the threshold | below the threshold | below the threshold | below the threshold | below the threshold | below the threshold | below the threshold | below the threshold | below the threshold | below the threshold | pKd [11]: below the threshold; pKd [15]: below the threshold
TGDTLEKFVEGL [CBP, Q92793] | below the threshold | below the threshold | below the threshold |  | below the threshold | 4.58 | below the threshold | below the threshold | below the threshold | below the threshold | 4.09 | below the threshold | below the threshold | below the threshold | below the threshold | below the threshold | below the threshold | 4.22 | below the threshold | below the threshold | 
NYWPGKETQL [SLCO1C1, Q9NYB5] | below the threshold | below the threshold | 4.73 | below the threshold | below the threshold | below the threshold | 4.83 | 4.91 | below the threshold | below the threshold | below the threshold | below the threshold | below the threshold | below the threshold | below the threshold | below the threshold | below the threshold | below the threshold | below the threshold | 4.64 | pKd [11]: below the threshold; pKd [15]: below the threshold
QPGTPTRTAV [MAP2K2, P36507] | below the threshold | below the threshold | below the threshold | below the threshold | below the threshold | below the threshold | below the threshold | below the threshold | below the threshold | below the threshold | below the threshold | below the threshold | below the threshold | below the threshold | 4.21 | below the threshold | 4.12 | below the threshold | below the threshold | below the threshold | pKd [11]: below the threshold; pKd [15]: below the threshold
DEDQHTQITKV [PTEN, P60484] | below the threshold | below the threshold | below the threshold |  | below the threshold | 4.25 | below the threshold | below the threshold | below the threshold | below the threshold | 4.46 | 3.58 |  | below the threshold | below the threshold | below the threshold | below the threshold | below the threshold | below the threshold | below the threshold | 
